Experiment [1] has as its system Laminin-1 (human placenta). In words: Western blot binding of rPTRP to ECM protein. Conditions: ECM protein 5 μg/ml. In general terms: Immunoblotting shows a protein as a band on a membrane.
Experiment [2] deals with fibronectin (human plasma). Description: Western blot binding of rPTRP to ECM protein. The settings on record: ECM protein 5 μg/ml.
Experiment [3] relates to other ECM proteins tested (fibrinogen, elastin, collagen I-IV, vitronectin). Description: Western blot binding of rPTRP to other ECM proteins. Also on record: species or system human. The settings on record: data not shown.
In experiment [4] the test system is anti-PTRP antibodies in sera from TB patients. In words: Western blot of rPTRP probed with human sera. The experiment is classed as binding. Conditions: for sera showing reactivity with the ~52 kDa protein: positive/tested.
Experiment [5] concerns the target T1, Thrombospondin (human platelet) (Homo sapiens, UniProt P07996).
T1 construct: Thrombospondin (human platelet) was from Calbiochem, EMD Biosciences Inc; purchased Calbiochem, EMD Biosciences Inc; host or cells: human platelet
Description: ELISA binding of rPTRP to ECM protein. The settings on record: rPTRP 5-20 μg/ml coated. As to the method: (§1) The wells of ELISA plates were coated with various concentration of rPTRP (5-20 μg/ml in PBS) or BSA for 1 h at 37° C. followed by ON at 4° C. Subsequently, the wells were washed with PBS, blocked with 1% BSA in PBS (2 h at 37° C.), washed again with PBST and incubated with different ECM proteins (1 μg/ml; only laminin at 0.5 μg/ml) for 2 h at 37° C. After washing again, the wells were exposed to respective anti-ECM antibodies and the appropriate enzyme-conjugated secondary antibodies to detect the bound ECM proteins.

Experiment [6] concerns Laminin-1 (human placenta). Description: ELISA binding of rPTRP to ECM protein. Conditions: rPTRP 5-20 μg/ml coated, laminin 0.5 μg/ml. As to the method:
as §1
(In general: ELISA stands for enzyme-linked immunosorbent assay.)

Experiment [7] deals with fibronectin (human plasma). In words: ELISA binding of rPTRP to ECM protein. The settings on record: rPTRP 5-20 μg/ml coated. As to the method:
as §1

Experiment [8] concerns the target T1, Thrombospondin (human platelet). Description: Western blot binding of rPTRP to ECM protein. The settings on record: ECM protein 5 μg/ml. As to the method: The binding of the purified rPTRP to various ECM proteins was determined both by western blotting and ELISA (21). Laminin-1 (human placenta); fibronectin and fibrinogen (human plasma) and elastin (human lung) were obtained from Sigma; human collagen I; collagen III and collagen IV (human placenta), collagen II (human cartilage) and vitronectin (human plasma) from Chemicon International Inc. Temecula, Calif. Thrombospondin (human platelet) was from Calbiochem, EMD Biosciences Inc. and BSA (negative control) was from Promega. Western blots containing rPTRP (0.4 μg/lane) were blocked with 3% BSA in PBS and incubated with the ECM proteins (5 μg/ml) dissolved in PBS. Negative control lanes were incubated with PBS alone. The bound ECM proteins were detected with appropriate anti-ECM antibodies (anti-laminin, anti-fibronectin, anti-thrombospondin and anti-vitronectin at 1:5000; anti-fibrinogen at 1:1000; anti-Col I, Col III, Col IV and anti-elastin at 1:500; anti-Col II at 1:100) followed by appropriate enzyme-conjugated secondary antibodies (anti-rabbit IgG-AP at 1:2000; anti-goat IgG-AP at 1:3000).

T1 sequence (P07996 19-1170): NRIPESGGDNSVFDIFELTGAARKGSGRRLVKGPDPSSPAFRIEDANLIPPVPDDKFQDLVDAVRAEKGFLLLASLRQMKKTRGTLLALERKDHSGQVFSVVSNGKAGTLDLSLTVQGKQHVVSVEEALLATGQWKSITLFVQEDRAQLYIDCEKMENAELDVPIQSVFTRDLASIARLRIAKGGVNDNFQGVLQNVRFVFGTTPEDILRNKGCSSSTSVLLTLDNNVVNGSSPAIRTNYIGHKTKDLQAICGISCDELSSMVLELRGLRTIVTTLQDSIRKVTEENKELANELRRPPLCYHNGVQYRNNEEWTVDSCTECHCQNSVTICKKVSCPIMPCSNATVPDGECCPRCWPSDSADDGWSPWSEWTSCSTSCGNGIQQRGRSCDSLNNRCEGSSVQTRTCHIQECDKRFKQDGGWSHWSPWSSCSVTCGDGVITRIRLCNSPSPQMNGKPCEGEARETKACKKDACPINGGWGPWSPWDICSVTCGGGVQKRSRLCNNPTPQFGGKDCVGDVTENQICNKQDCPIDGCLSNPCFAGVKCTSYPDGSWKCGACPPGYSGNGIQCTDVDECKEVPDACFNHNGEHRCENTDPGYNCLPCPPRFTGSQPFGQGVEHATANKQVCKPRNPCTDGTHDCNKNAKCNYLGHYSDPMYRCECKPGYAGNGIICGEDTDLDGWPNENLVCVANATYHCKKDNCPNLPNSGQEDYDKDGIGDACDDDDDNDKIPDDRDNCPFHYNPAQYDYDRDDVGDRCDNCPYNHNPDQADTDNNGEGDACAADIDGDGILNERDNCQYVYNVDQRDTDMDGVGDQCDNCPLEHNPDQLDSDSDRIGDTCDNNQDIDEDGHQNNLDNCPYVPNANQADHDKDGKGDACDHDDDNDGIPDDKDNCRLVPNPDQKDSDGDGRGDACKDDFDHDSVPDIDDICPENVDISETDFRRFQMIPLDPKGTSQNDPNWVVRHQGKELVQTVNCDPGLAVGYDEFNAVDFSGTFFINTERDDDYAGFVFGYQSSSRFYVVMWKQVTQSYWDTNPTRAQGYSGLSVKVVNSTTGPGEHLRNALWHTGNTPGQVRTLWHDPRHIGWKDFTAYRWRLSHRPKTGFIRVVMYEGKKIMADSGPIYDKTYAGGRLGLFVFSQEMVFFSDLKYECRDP

B1: rPTRP: purified recombinant proline-threonine repetitive protein of Mtb (SEQ ID NO:2), GST tag cleaved (protein)
chain: MDVALGVAVTDRVARLALVDSAAPGTVIDQFVLDVAEHPVEVLTETVVGTDRSLAGENHRLVATRLCWPDQAKADELQHALQDSGVHDVAVISEAQAATALVGAAHAGSAVLLVGDETATLSVVGDPDAPPTMVAVAPVAGADATSTVDTLMARLGDQALAPGDVFLVGRSAEHTTVLADQLRAASTMRVQTPDDPTFALARGAAMAAGAATMAHPALVADATTSLPRAEAGQSGSEGEQLAYSQASDYELLPVDEYEEHDEYGAAADRSAPLSRRSLLIGNAVVAFAVIGFASLAVAVAVTIRPTAASKPVEGHQNAQPGKFMPLLPTQQQAPVPPPPPDDPTAGFQGGTIPAVQNVVPRPGTSPGVGGTPASPAPEAPAVPGVVPAPVPIPVPIIIPPFPGWQPGMPTIPTAPPTTPVTTSATTPPTTPPTTPVTTPPTTPPTTPVTTPPTTPPTTPVTTPPTTVAPTTVAPTTVAPTTVAPTTVAPATATPTTVAPQPTQQPTQQPTQQMPTQQQTVAPQTVAPAPQPPSGGRNGSGGGDLFGGF
modifications: GST tag cleaved; possible residual linker residues; Mycobacterium tuberculosis Strain H37Rv
Take B1: the binding to laminin result in experiment [1] is “showed binding”; in experiment [6] it was “in a dose-dependent manner”. Besides, the binding to fibronectin result in experiment [2] was “showed binding”; in experiment [7], “in a dose-dependent manner”. Also, the “binding to other ECM proteins” value in experiment [3] is listed as “not with any of the other ECM proteins tested”. In addition, the “sera showing significant reactivity with the protein” value in experiment [4] (6 PPD+, 6 PPD- and 6 HIV+TB- subjects) is on record as “none”. For the same molecule, the “sera showing reactivity with the ~52 kDa protein” value in experiment [4] (HIV+TB+ patients) was 5/6; in experiment [4] (HIV-TB+ patients) it was 4/6. For the same molecule, the binding to thrombospondin result is recorded as “in a dose-dependent manner” in experiment [5] and “showed binding” in experiment [8].

For the origin of these results see US9335325B2, “Immunodominant Mycobacterium tuberculosis peptides from cell wall proteins for early diagnosis and immunization” (priority 2008, dated 2016).
